Experimental data taken from paper PMC12631009, “Dominant‐Negative Effects of p53 R337 Variants in Li–Fraumeni Syndrome: Impact on Tetramer Formation and Transcriptional Activity” (Chembiochem, 2025).

Molecular target: T1, Biotin-(Aca)2-p53TD (biotin-labeled WT p53 tetramerization domain peptide, residues 319-358) (human, biotin conjugated at the N-terminus with two residues of aminocaproic acid (Aca) as a linker)
T1 construct: p53 tetramerization domain, human, residues 319-358; Held on NeutrAvidin beads in the pull-down; also called Bio-(Aca)2-p53TD; biotin-labeled WT p53TD; source: synthetic peptide (solid-phase synthesis, reverse-phase HPLC purified); not shown: biotin, N-terminal, kept
T1 peptide: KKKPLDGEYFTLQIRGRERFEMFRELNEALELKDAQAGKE
Experiment: pull-down; avidin-biotin pull-down: Bio-(Aca)2-p53TD mixed with nonbiotinylated peptide at equimolar concentrations (10 μM) in 50 mM Na phosphate buffer (pH 7.5), 100 mM NaCl; boiled 5 min, cooled to promote hetero-oligomerization; bound to NeutrAvidin beads at 4 °C for 2 h; eluted with 80% acetic acid; peptides quantified by reverse-phase HPLC; result as ratio of peptide pulled down to biotinylated p53TD
Conditions: both partners purified

B1: WT p53TD peptide (residues 319-358 of human p53), nonbiotinylated (peptide)
peptide: T1 peptide
notes: p53 tetramerization domain, human, residues 319-358; source: synthetic peptide (solid-phase synthesis, reverse-phase HPLC purified)
In the case of B1, the “ratio of peptide pulled down to biotinylated p53TD” value is reported as 0.81.
